Experimental findings from publication PMC10786891, “Massively parallel profiling of RNA-targeting CRISPR-Cas13d” are described below.

T1: EsCas13d, nuclease-dead (Eubacterium siraeum, UniProt B0MS50, R295A;H300A;R849A;H854A)
T1 sequence: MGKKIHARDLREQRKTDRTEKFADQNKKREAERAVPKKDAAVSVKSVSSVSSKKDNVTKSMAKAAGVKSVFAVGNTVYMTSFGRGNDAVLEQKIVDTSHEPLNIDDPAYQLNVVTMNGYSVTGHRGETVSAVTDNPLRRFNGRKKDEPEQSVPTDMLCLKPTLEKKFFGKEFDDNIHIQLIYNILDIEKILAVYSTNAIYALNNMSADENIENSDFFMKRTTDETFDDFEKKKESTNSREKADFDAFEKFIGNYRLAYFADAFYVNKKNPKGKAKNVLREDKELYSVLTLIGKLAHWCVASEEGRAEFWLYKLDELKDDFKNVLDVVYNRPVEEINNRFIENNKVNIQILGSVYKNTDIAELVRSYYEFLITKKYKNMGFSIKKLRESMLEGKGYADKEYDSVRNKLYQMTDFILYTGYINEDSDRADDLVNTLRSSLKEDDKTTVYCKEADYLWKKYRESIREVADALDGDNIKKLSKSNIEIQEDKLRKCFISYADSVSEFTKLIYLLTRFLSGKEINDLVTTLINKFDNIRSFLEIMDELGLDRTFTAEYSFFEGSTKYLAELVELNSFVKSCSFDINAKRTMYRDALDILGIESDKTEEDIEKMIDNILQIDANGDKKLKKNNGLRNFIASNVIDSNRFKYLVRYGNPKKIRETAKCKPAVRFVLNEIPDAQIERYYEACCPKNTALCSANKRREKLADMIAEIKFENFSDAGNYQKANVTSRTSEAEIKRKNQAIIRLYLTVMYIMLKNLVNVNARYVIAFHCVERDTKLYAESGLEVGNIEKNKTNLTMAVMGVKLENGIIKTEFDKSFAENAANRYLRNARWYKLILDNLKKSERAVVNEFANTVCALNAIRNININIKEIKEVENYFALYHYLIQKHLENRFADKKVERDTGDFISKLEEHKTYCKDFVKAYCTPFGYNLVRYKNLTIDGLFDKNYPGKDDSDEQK

B1: target 1 insC 3' of 22,insU 3' of 20 (mixed)
RNA 1: CACCCGUGCAAAAAUGCAGGGGUCUAAAACUGAGCGGAUAACCUCUCUAUGG
RNA 2: GGGAAUGGAUCCACAUCUACGAAUUCGUACCCAUUAGAGAGGUUAUCCGCUCACCGAGAUCGGAAGAGCACACGU
B2: target 1 insC 3' of 17,insU 3' of 13 (mixed)
RNA 1: B1 RNA 1
RNA 2: GGGAAUGGAUCCACAUCUACGAAUUCGUACCAUAGCAGAGUGUUAUCCGCUCACCGAGAUCGGAAGAGCACACGU
B3: target 1 insC 3' of 15,insC 3' of 1 (mixed)
RNA 1: B1 RNA 1
RNA 2: GGGAAUGGAUCCACAUCUACGAAUUCGUACCAUAGAGCAGGUUAUCCGCUCACCCGAGAUCGGAAGAGCACACGU
B4: target 1 insC 3' of 8,insU 3' of 1 (mixed)
RNA 1: B1 RNA 1
RNA 2: B3 RNA 2 with C38A, A39G, G41U, U43A, A44U, U45C, C53U
B5: target 1 insA 3' of 6,insG 3' of 6 (mixed)
RNA 1: B1 RNA 1
RNA 2: GGGAAUGGAUCCACAUCUACGAAUUCGUACCAUAGAGAGGUUAUCCAGGCUCACCGAGAUCGGAAGAGCACACGU
B6: target 1 insC 3' of 9,insC 3' of 5 (mixed)
RNA 1: B1 RNA 1
RNA 2: B5 RNA 2 with U44C, C45U, A47C, G49C
B7: target 1 insC 3' of 8,insA 3' of 2 (mixed)
RNA 1: B1 RNA 1
RNA 2: B5 RNA 2 with A47C, G49C, C50U, U51C, C52A
B8: target 1 C7U,G13U (mixed)
RNA 1: B1 RNA 1
RNA 2: GGGAAUGGAUCCACAUCUACGAAUUCGUACCAUAGAGAUGUUAUUCGCUCACCGAGAUCGGAAGAGCACACGU
B9: target 1 A14C,C21U (mixed)
RNA 1: B1 RNA 1
RNA 2: B8 RNA 2 with C31U, A38C, U39G, U45C
B10: target 1 insC 3' of 15,insA 3' of 2 (mixed)
RNA 1: B1 RNA 1
RNA 2: B3 RNA 2 with C53A
B11: target 1 insA 3' of 22,insA 3' of 21 (mixed)
RNA 1: B1 RNA 1
RNA 2: B1 RNA 2 with C31A, U34A
B12: target 1 U10C,U11C (mixed)
RNA 1: B1 RNA 1
RNA 2: B8 RNA 2 with U39G, U41C, U42C, U45C
B13: target 1 insC 3' of 8,insG 3' of 1 (mixed)
RNA 1: B1 RNA 1
RNA 2: B5 RNA 2 with A47C, G49C, C50U, U51C, C52A, A53G
B14: target 1 G17C,C21A (mixed)
RNA 1: B1 RNA 1
RNA 2: B8 RNA 2 with C31A, G35C, U39G, U45C
B15: target 1 insC 3' of 13,insC 3' of 11 (mixed)
RNA 1: B1 RNA 1
RNA 2: B5 RNA 2 with G40C, U41G, A43C, C45A, C46U, A47C, G48C
B16: target 1 C7U,A18U (mixed)
RNA 1: B1 RNA 1
RNA 2: B8 RNA 2 with A34U, U39G
B17: target 1 del3,del4 (mixed)
RNA 1: B1 RNA 1
RNA 2: GGGAAUGGAUCCACAUCUACGAAUUCGUACCAUAGAGAGGUUAUCCGCACCGAGAUCGGAAGAGCACACGU
B18: target 1 C6U,G12U (mixed)
RNA 1: B1 RNA 1
RNA 2: B8 RNA 2 with U39G, G40U, U45C, C46U
B19: target 1 C2A,U19G (mixed)
RNA 1: B1 RNA 1
RNA 2: B8 RNA 2 with U33G, U39G, U45C, C50A
B20: target 1 G5A,C21U (mixed)
RNA 1: B1 RNA 1
RNA 2: B8 RNA 2 with C31U, U39G, U45C, G47A
B21: target 1 insC 3' of 9,insG 3' of 2 (mixed)
RNA 1: B1 RNA 1
RNA 2: B5 RNA 2 with U44C, C45U, A47C, G49C, C50U, U51C, C52G
B22: target 1 U10G,U11A (mixed)
RNA 1: B1 RNA 1
RNA 2: B8 RNA 2 with U39G, U41A, U42G, U45C
B23: target 1 A1G,G17U (mixed)
RNA 1: B1 RNA 1
RNA 2: B8 RNA 2 with G35U, U39G, U45C, A51G
B24: target 1 del1,del3 (mixed)
RNA 1: B1 RNA 1
RNA 2: B17 RNA 2 with A49C
B25: target 1 insC 3' of 20,insC 3' of 13 (mixed)
RNA 1: B1 RNA 1
RNA 2: B2 RNA 2 with U33C, A34U, G35A, C36G, U41C
B26: target 1 A1G,C6A (mixed)
RNA 1: B1 RNA 1
RNA 2: B8 RNA 2 with U39G, U45C, C46A, A51G
B27: target 1 insC 3' of 8,insC 3' of 1 (mixed)
RNA 1: B1 RNA 1
RNA 2: B5 RNA 2 with A47C, G49C, C50U, U51C, C52A, A53C
B28: target 1 U10A,C21U (mixed)
RNA 1: B1 RNA 1
RNA 2: B8 RNA 2 with C31U, U39G, U42A, U45C
B29: target 1 C7G,A18U (mixed)
RNA 1: B1 RNA 1
RNA 2: B8 RNA 2 with A34U, U39G, U45G
B30: target 1 insC 3' of 17,insA 3' of 12 (mixed)
RNA 1: B1 RNA 1
RNA 2: B2 RNA 2 with U41G, G42A
B31: target 1 insC 3' of 15,insU 3' of 1 (mixed)
RNA 1: B1 RNA 1
RNA 2: B3 RNA 2 with C53U
B32: target 1 insA 3' of 13,insA 3' of 12 (mixed)
RNA 1: B1 RNA 1
RNA 2: B1 RNA 2 with C32A, A33U, U34A, U35G, G42A
B33: target 1 U8G,C22A (mixed)
RNA 1: B1 RNA 1
RNA 2: B8 RNA 2 with C30A, U39G, U44G, U45C

Positions count from the first letter of the chain named. Names may count otherwise.

The term Kd denotes a measure of binding affinity in units of concentration. A lower Kd goes with a tighter complex.

This series deals with T1, EsCas13d, nuclease-dead. The experiment in a line: crRNA (strand 1, pre-loaded); Mg2+; 40 mM Tris-HCl pH 7.5, 150 mM NaCl, 6 mM MgCl2, 1 mM DTT, 0.1% Tween-20, 0.2 mg/ml BSA; 25 C; 10 min per concentration, then washed. The note with it: tags: His6-TwinStrep-SUMO cleaved; N-terminal SNAP kept (SNAP-Surface 488); label: 3' end held by stalled T7 RNA polymerase.
B1 came in with a Kd of 18.3 ± 2.7 nM.
With B2, the Kd is 80 ± 40 nM.
For B3, the Kd was determined as 15.6 ± 1.3 nM.
Molecule B4 returned a Kd of 26.3 ± 2.5 nM.
B5 displayed a Kd of 32 ± 5 nM.
As for B6, the figure is 10.9 ± 0.7 nM; as for B7, 18.9 ± 1.4 nM.
In turn, B8 had a Kd of 39 ± 6 nM.
B9 gave a Kd of 7.3 ± 0.6 nM.
For B10, binding was put at a Kd of 15.6 ± 0.8 nM.
For B11, binding was put at a Kd of 16.2 ± 0.9 nM.
On to B12, for which the Kd was 24.7 ± 2.9 nM.
Take B13: the equilibrium dissociation constant (Kd) is 14.3 ± 1 nM.
Turning to B14, binding was put at a Kd of 47 ± 12 nM.
B15 showed a Kd of 14.2 ± 1 nM.
The molecule B16 returned a Kd of 26.9 ± 2.3 nM.
The molecule B17 displayed a Kd of 14.4 ± 1.2 nM.
Then B18, with 11.3 ± 0.8 nM; and B19, with 48 ± 5 nM.
Take B20: the Kd worked out at 23 ± 6 nM.
B21 registered a Kd of 13.8 ± 0.7 nM.
Turning to B22, the dissociation constant Kd is 12.9 ± 1 nM.
B23 came in with a Kd of 21.3 ± 2.1 nM.
For B24, the Kd was 45 ± 13 nM.
B25 showed a Kd of 7.2 ± 0.6 nM.
B26 had a Kd of 7 ± 0.35 nM.
In turn, B27 returned a Kd of 13 ± 0.9 nM.
As for B28, the figure is 8.1 ± 0.5 nM; as for B29, 32 ± 6 nM; as for B30, 32.9 ± 2.7 nM.
As for B31, the figure is 19.1 ± 1.8 nM; as for B32, 11.8 ± 0.8 nM.
The molecule B33 yielded a Kd of 27.6 ± 3 nM.
